The record followed here is patent US20260250421A1 (BIOCYTOGEN PHARMACEUTICALS BEIJING, published 2026).

For test [1], the target named is T1, human PTK7 on human cancer cell lines (human, UniProt Q13308 31-1070).
T1 construct: Endogenous PTK7 of human tumour cell lines; also called PTK7 on A-431, NCI-H520, NCI-N87, SK-OV-3, BT-20, HCC1954, NCI-H226, NCI-H358, HCT116, PC-3, NCI-H292, NCI-H1975 cells
T1 sequence: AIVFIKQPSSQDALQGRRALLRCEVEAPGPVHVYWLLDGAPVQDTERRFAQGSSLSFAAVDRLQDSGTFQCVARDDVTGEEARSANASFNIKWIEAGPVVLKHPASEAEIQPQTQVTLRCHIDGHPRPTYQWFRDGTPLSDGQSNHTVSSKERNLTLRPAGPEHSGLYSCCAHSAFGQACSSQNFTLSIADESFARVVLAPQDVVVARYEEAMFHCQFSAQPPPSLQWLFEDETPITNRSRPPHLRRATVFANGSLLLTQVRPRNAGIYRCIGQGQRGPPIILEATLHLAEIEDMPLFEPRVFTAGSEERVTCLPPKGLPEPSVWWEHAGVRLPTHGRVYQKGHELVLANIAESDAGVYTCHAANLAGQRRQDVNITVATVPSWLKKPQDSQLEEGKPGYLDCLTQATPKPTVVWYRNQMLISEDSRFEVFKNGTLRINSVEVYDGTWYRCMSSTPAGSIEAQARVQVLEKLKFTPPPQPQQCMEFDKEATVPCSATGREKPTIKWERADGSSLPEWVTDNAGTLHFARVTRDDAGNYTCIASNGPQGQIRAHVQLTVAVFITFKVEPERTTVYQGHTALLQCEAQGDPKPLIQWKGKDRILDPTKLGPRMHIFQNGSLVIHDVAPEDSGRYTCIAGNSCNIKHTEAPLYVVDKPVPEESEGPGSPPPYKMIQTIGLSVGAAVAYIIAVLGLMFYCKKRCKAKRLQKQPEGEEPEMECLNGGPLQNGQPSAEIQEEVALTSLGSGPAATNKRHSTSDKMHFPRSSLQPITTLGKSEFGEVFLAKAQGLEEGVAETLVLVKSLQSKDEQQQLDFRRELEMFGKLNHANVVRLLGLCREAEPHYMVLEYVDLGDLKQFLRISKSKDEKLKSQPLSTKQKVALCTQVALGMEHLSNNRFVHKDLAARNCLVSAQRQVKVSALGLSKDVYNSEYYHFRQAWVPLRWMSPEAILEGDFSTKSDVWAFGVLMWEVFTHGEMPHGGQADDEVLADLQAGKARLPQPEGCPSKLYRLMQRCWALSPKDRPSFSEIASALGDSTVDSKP
Put plainly: flow cytometry, A-431 cells, Ab 5 ug/mL. As to the method: (§1) The binding activity of anti-PTK7 antibodies to cancer cell lines was verified by flow cytometry. […] Purified anti-PTK7 antibody with a concentration of 5 μg/mL was added to each well and was incubated at 4° C. for 30 minutes. […] The cells were collected, and the mean fluorescence intensity (MFI) was determined. Human IgG1 was used as ISO control.
Background: Flow cytometry measures light scatter and fluorescence of single cells or particles in a stream.

The target of test [2] is T2, His-tagged human PTK7 protein (human, UniProt Q13308 31-704).
T2 construct: Bought protein; also called hPTK7-His; not shown: His tag
T2 sequence: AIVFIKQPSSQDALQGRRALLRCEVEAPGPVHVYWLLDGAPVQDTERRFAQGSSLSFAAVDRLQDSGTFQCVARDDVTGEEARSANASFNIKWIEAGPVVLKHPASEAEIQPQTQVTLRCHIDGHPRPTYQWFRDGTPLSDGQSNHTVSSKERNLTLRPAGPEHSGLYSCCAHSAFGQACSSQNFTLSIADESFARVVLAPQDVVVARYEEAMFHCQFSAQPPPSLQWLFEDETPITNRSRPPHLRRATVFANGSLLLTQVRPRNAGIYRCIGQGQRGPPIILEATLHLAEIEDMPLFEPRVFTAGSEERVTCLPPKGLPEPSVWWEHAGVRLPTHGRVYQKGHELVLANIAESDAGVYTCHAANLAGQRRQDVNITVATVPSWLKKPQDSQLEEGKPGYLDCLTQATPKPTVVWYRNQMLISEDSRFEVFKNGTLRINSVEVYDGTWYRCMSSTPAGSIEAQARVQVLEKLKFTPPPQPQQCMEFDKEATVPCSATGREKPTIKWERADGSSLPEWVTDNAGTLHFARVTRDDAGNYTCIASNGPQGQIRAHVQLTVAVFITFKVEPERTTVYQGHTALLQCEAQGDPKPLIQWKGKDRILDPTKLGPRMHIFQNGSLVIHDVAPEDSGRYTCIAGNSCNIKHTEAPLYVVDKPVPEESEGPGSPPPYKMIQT
The test is described as follows: SPR Biacore 8K, Ab on Protein A chip. As to the method:
Purified anti-PTK7 antibodies were diluted to 1 μg/mL and then injected into the Biacore™ 8K biosensor at 10 μL/min for about 50 seconds to achieve a desired protein density (e.g., about 50 response units (RU)). The His-tagged PTK7 protein at a concentration of 200 nM or 0 nM was then injected at 30 μL/min for 180 seconds. Dissociation was monitored for 400 seconds. The chip was regenerated after the last injection of each titration with glycine (pH 2.0, 30 μL/min for 30 seconds).

The target in test [3] is T1, human PTK7 on human cancer cell lines. The test is described as follows: flow cytometry, NCI-N87 cells, Ab 5 ug/mL. How it is done: as §1
The target in test [4] is T2, His-tagged human PTK7 protein. Put plainly: BLI Octet binning on hPTK7-His; competitor hu24 analog. How it is done:
Relative positions of target protein epitope between a pair of purified anti-PTK7 antibodies were analyzed by Biolayer Interferometry (BLI) using ForteBio Octet system at 30° C. A total of […] purified antibodies were used: 1A7, 1A11, 1F2, 2A5, 2D11, 2F5, 3C4 and 3E6.
1×HBS-EP+ buffer (10 mM 4-(2-hydroxyethyl)-1-piperazineethanesulfonic acid (HEPES), 150 mM NaCl, 3 mM ethylenediaminetetraacetic acid (EDTA) and 0.05% P20, pH7.4) diluted from HBS-EP+ buffer (10×) was used as the running buffer throughout the experiment. His-tagged human PTK7 protein was captured at a flow rate of 10 μL/min, and 200 nM of antibody (Analyte 1) was injected at a flow rate of 30 μL/min to bind the ligand. Another antibody (Analyte 2) was injected under the same conditions to determine whether the binding of different antibodies interfered with each other. The binding time was 300 s for each antibody.
The binding value of each antibody was obtained using Data Analysis HT 12.0. To quantify the interference of one antibody binding to another, a binding ratio was calculated to compare each pair of antibodies. The binding ratio is defined as the binding value of the second antibody (Analyte 2), divided by the binding value of the first antibody (Analyte 1). […] In general, antibody pairs that interfere with each other have the same or overlapping epitopes.
In general terms: Biolayer interferometry detects binding as a change in optical thickness at a sensor tip.

B1: 3C4 (antibody, V domains shown)
VH: QVQLEQSRAEVKKPGESLRISCKGSGYSFTSYWISWVRQMPGKGLEWMGRIDPSDSYTNYNPSFQGHVTISADKSISTAYLQWSSLKASDTAMYYCARRDGSYFDFDYWGQGTLVTVSS
VL: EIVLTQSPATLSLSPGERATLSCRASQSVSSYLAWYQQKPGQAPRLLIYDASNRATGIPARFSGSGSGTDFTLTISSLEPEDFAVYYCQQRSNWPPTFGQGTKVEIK
notes: also called anti-PTK7 antibody 3C4
As for B1, the MFI in test [1] was 186000. In test [2], the Kd – broadly, the concentration at which binding is half-saturated – came out at 25.4 nM; the koff (as a rule, the first-order rate constant of dissociation) amounted to 0.00237 s⁻¹; the kon (usually the second-order rate constant of association) was 93200 M⁻¹ s⁻¹. The MFI in test [3] turned out to be 139000. For the same molecule, the binding ratio in test [4] came out at 1.22.

B2: 3E6 (antibody, V domains shown)
VH: QVQLVESGAEVKKPGESLRISCRGSGYSFTSYWISWVRQMPGKGLEWMGRIDPSDSYTKYSPSFQGHVTISADKSISTAYLQWSSLKASDTAMYYCARRDGDYFDFDYWGQGTLVTVSS
VL: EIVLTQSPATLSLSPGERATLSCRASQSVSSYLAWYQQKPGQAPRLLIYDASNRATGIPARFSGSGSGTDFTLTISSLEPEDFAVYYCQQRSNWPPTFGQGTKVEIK
notes: also called anti-PTK7 antibody 3E6
Consider B2, for which the MFI in test [1] stood at 289000. In test [2], this molecule displayed a Kd of 3.44 nM, a koff of 0.000454 s⁻¹ and a kon of 132000 M⁻¹ s⁻¹. The same molecule came in with an MFI in test [3] of 180000. For the same molecule, the binding ratio in test [4] was 0.98.

B3: 1F2 (antibody, V domains shown)
VH: QVQLVQSGGGLVQPGGSLRLSCAASGFTFSRYEMNWVRQAPGKGLEWVSYINSIGSAINYADSVKGRFTISRDNAKNSLYLQMRSLRAEDTAVYYCVREDNWNPGYWGQGTLVTVSS
VL: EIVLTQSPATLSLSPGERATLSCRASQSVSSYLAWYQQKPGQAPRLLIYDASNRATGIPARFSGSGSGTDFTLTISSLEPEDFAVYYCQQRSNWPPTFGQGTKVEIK
notes: also called anti-PTK7 antibody 1F2
B3 displayed an MFI in test [1] of 156000. Further, in test [2], binding was characterised by a dissociation constant (Kd) of 69.8 nM, the koff was 0.012 s⁻¹ and the kon worked out at 172000 M⁻¹ s⁻¹. Besides, in test [3], the MFI is 108000. Also, the binding ratio in test [4] is 0.95.

B4: 1A11 (antibody, V domains shown)
VH: QVQLVQSGPGLVKPSETLSLTCTVSGGSINSYYWNWIRQPPGKGLEWIGYIYYSGSTNYNPSLKSRVTISVDTSKNQFSLKLSSVTAADTAVYYCARDPHDYIRGHFDLWGRGTLFTVSS
VL: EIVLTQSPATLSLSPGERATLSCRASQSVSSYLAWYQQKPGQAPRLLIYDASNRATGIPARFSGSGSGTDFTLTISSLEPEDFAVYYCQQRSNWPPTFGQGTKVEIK
notes: also called anti-PTK7 antibody 1A11
Molecule B4 came in with an MFI in test [1] of 247000. In test [2], this molecule gave a Kd of 41 nM, a koff of 0.00318 s⁻¹ and a kon of 77600 M⁻¹ s⁻¹. Further, the MFI in test [3] amounted to 158000. Moreover, the binding ratio in test [4] was 0.97.

B5: 1A7 (antibody, human IgG1, V domains shown)
VH: QVQLVESGGGVVQPGRSLRLSCAASGFTFSNYGMHWVRQAPGKGLEWVAVIYYDGSNKFYADSVKGRFTISRDNSKNTLYLQMSSLRAEDTAVYYCARDVAPPGSRAEYFHHWGQGTLVTVSS
VL: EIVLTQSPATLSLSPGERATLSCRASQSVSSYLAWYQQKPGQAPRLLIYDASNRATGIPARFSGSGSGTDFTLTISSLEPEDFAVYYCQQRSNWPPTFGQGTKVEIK
notes: also called anti-PTK7 antibody 1A7
B5: the MFI in test [1] is 91100. In test [2], this molecule showed a Kd of 40.9 nM, a koff of 0.00425 s⁻¹ and a kon of 104000 M⁻¹ s⁻¹. Besides, the MFI in test [3] stood at 75700. Also, the binding ratio in test [4] stood at 0.2.

B6: 2D11 (antibody, V domains shown)
VH: QVQLVESGGGVVQPGRSLRLSCAASGFTFSSYGMHWVRQAPGKGLEWVAVIFYDGSNKYYADSVKGRFTISRDNSKNTLYLQMNSLRAEDTSVYYCARDVAAPGSRAEYFQNWGQGTLVTVSS
VL: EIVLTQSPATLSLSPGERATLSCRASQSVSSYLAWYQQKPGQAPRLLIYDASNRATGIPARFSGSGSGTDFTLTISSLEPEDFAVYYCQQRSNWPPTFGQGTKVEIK
notes: also called anti-PTK7 antibody 2D11
Consider B6, for which the MFI in test [1] amounted to 295000. In test [2], the Kd was found to be 8.11 nM, the koff amounted to 0.000249 s⁻¹ and the kon came out at 30600 M⁻¹ s⁻¹. In addition, in test [3], the MFI was determined as 217000. The binding ratio in test [4] amounted to 0.21.

B7: 2A5 (antibody, V domains shown)
VH: QVQLVQSGGGVVQPGRSLRLSCAASGFTFSNYGMHWVRQAPGKGLEWVAVIWYDGRNKYYADSVKGRFTISRDNSKNTLYLQMNSLRAEDTAVYYCARDVAPAGSRAEYFQNWGQGTLVTVSS
VL: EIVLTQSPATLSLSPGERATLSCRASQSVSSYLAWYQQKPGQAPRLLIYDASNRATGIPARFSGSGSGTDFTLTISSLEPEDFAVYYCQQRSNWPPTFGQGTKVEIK
notes: also called anti-PTK7 antibody 2A5
B7: the MFI in test [1] worked out at 173000. In test [2], this molecule registered a Kd of 25.9 nM, a koff of 0.00281 s⁻¹ and a kon of 108000 M⁻¹ s⁻¹. In addition, the MFI in test [3] amounted to 152000. In addition, the binding ratio in test [4] was 0.04.

B8: 2F5 (antibody, V domains shown)
VH: QVQLVESGGGVVQPGRSLRLSCVASGFTFSNYGMHWVRQAPGKGLEWVAIIYYDGSNKYYADSVKGRFTISRDNSKNTLYLQMNSLRAEDTAVYYCARDVAAAGSRAEYLHHWGQGTLVTVSS
VL: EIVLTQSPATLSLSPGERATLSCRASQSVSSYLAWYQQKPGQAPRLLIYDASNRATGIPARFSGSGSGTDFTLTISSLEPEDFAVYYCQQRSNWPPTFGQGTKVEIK
notes: also called anti-PTK7 antibody 2F5
In test [1], B8 registered an MFI of 106000. In test [2], this molecule showed a Kd of 109 nM, a koff of 0.00388 s⁻¹ and a kon of 35600 M⁻¹ s⁻¹. In addition, the MFI in test [3] came out at 69400. The binding ratio in test [4] worked out at 0.19.
